experiment: soluble on expression in E. coli; label from the status in PepcDB or PDB records

Sequence	soluble on expression in E. coli
NTYAPIETLKRLYSEAFRLPDVVGISIGTRIDSVNHEILDFLGEYAREKEVWIEYGIQSIHDRTLEGINRGHDSSEMEYWIKETQNRGIKVCVHLIYGLPGESEEMMLETLDKMIEWQAESIKIHPLYVMAHTALATLYKKGEYTPITLERYAWLIGESMKRIPK	not soluble
MGSDKIHHHHHHMRNPEVIVIGSGIGGLCCGGLLAKAGKRVLILEAHSKPGGAAHGFEKNGYKFESGPSLWSGIGSWPTTNPLGQVLKALNQKVDLIKYQDWNVQIPEGDYTIGVGDRRFLDQINSISGKDAMKEWENFIQVIKPIGAAANAIPLLALNQNKETVLQLLKRSKTLLTHLKSFKYLGGAFGNLVDDHLKDPFLRNWVELLCFLISGLSKDETNAAAMATLFDDWFNPDAYLEYPKGGSESIVKALLDGIYSFGGDLQLNSKVSQIIIKRNKAIGIELKNGERIFADHIVSNADIWNTIELIPKEISQKWRGKRSKTPKCKSFLHLHLGFNAEGLKDIPLHSIWVNDWSKGITAERNVVVLSIPSALDPTMSPPNKHILHGYTPANEPWERWEGLKIGSKEYERTKEERCSVFWEPIKKLVPDIEERIEVKMLGTPLTHQRFLNTKNGSYGPALSAAEGLFPGNKTPIKNLLLCGSSTFPGIGIPPVAASGAMAANTILGSKFQRDLIEELGL	not soluble
MGSSHHHHHHSSGLVPRGSHMRQLTEEETKVVFEKLAGYIGRNISFLVDNKELPHVFRLQKDRVYYVPDHVAKLATSVARPNLMSLGICLGKFTKTGKFRLHITSLTVLAKHAKYKIWIKPNGEMPFLYGNHVLKAHVGKMSDDIPEHAGVIVFAMNDVPLGFGVSAKSTSESRNMQPTGIVAFRQADIGEYLRDEDTLFT	soluble
MRNRTLADLDRVVALGGGHGLGRVLSSLSSLGSRLTGIVTTTDNGGSTGRIRRSEGGIAWGDMRNCLNQLITEPSVASAMFEYRFGGNGELSGHNLGNLMLKALDHLSVRPLEAINLIRNLLKVDTHLIPMSEHPVDLMAIDDQGHEVYGEVNIDQLTTPIQELLLTPNVPATREAVHAINEADLIIIGPGSFYTSLMPILLLKEIAQALRRTPAPMVYIGNLGRELSLPAANLKLESKLAIMEQYVGKKVIDAVIVGPKVDVSAVKERIVIQEVLEASDIPYRHDRQLLHNALEKALQALGLEHHHHHH	not soluble
MADVALRITETVARLQKELKCGICCSTYKDPILSTCFHIFCRSCINACFERKRKVQCPICRSVLDKRSCRDTYQITMAVQNYLKLSEAFKKDIENMNTFKSLPPEKMFMESQMPLDITIIPENDGKRCAPDFAIPFLPVRRKRPSRPQPPSAFAEEPAEPVEPPEPATKQPVELQSRVFPLEKLKKDVETSTETYKISREELKNVDIEEYINTLRENSTEIDEIDALFQLMPTMRQFLRNNINQLMEKFHVAPPKKSEKPANRRVSFASSQDLENIKIMTASESLETPPEPIQKLAQKPEVFKSTQNLIDLNLNTAVKKPVVVASDDDEVVEDSEGELQIDEDDLANVTCATSVRNIGKSLCAEYIRGVRQICRICRLPSSANFKKVDLPNLPSSANFEICRTRQKFDSTISTKTTDFFAKNSQLIELVQQCGGEILSCYENLSPEKLYIIFSKHSKAIEESKNIENLYKCDVVTMEWVLDSISEYLILPTQPYKAVDSIGCLQD	not soluble
MRSANHSELSNALLAISQSLADRSQLTQTLDAVLTAARQMTLAKHGIIYVLDQTGQALIPSTAHHNDKTIVSHPWEALQIDSASENDPFNFAIRNGEVVLINELYKYKGYDCESIYQTEQTLGLKSENLLAWPLIDSESKTIGLLVLLDLNVIDNEAALTEFCRMAASNIRQAVWLEQ	not soluble
MGSDKIHHHHHHMFSVEQLQAFITTVETGSFSAAARRLNKVQSVVSQHVINLEVDCNILLFDRSGRYPALTEAGEKLLPHAQAVIDQHQRLKNSALSLTDNTPKEITIALDEGISFKLISGIISNLQNEFPNITLEFLSASSPDIIDMLKNEKALTGIVFSELTIPSYLDFECIGSIKFDLYVAKSHPLANQVCKNIDSLRLHRQLLIRSRNTQSSSFQLKLSPNVWYADNYFLLLELALQGNGWCLLPNHIANESVESGQLVKLPLEFEEMGWQANVDVVQHQRHSNLAVFKVLRLLLRNLL	not soluble
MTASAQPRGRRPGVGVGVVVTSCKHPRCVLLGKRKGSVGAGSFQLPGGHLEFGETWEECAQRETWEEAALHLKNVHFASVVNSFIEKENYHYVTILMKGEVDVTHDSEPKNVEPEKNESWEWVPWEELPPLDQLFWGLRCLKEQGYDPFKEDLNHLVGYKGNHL	soluble
